Experimental data as given in PMC4969796 (The Journal of General Physiology, 2016).

Target: the molecule itself
Test: SDS-PAGE

B1: L24C/R117C KcsA (before chymotrypsin) (natural protein)
chain: MPPMLSGLLARLVKLLLGRHGSACHWRAAGAATVLLVIVLLAGSYLAVLAERGAPGAQLITYPRALWWSVETATTVGYGDLYPVTLWGRLVAVVVMVAGITSFGLVTAALATWFVGCEQERRGHFVRHSEKAAEEAYTRTTRALHERFDRLERMLDDNRR
stoichiometry N: 4
